From paper PMC9929470

Assays:
[1] = molecular target: recombinant N1 (neuraminidase subtype 1 head domain of A/Brisbane/02/2018 (H1N1) fused to the tetrabrachion tetramerization domain) (not stated | influenza A virus A/Brisbane/02/2018 (H1N1)) (UniProt Q54436); experiment: SEC
[2] = molecular target: recombinant N1 (neuraminidase subtype 1 head domain of A/Brisbane/02/2018 (H1N1) fused to the tetrabrachion tetramerization domain) (not stated | influenza A virus A/Brisbane/02/2018 (H1N1)) (UniProt Q54436); experiment: SEC-MALS; AdvanceBio SEC 300-Å column connected to a DAWN8 detector, 0.3 ml/min, PBS pH 7.2
[3] = molecular target: recombinant N2 (neuraminidase subtype 2 head domain of A/Kansas/14/2017 (H3N2) fused to the tetrabrachion tetramerization domain) (not stated | influenza A virus A/Kansas/14/2017 (H3N2)) (UniProt Q54436); experiment: SEC
[4] = molecular target: recombinant N2 (neuraminidase subtype 2 head domain of A/Kansas/14/2017 (H3N2) fused to the tetrabrachion tetramerization domain) (not stated | influenza A virus A/Kansas/14/2017 (H3N2)) (UniProt Q54436); experiment: SEC-MALS; AdvanceBio SEC 300-Å column connected to a DAWN8 detector, 0.3 ml/min, PBS pH 7.2

In the case of “recombinant N1 (neuraminidase subtype 1 head domain of A/Brisbane/02/2018 (H1N1) fused to the tetrabrachion tetramerization domain) (from UniProt Q54436 1238-1286) (enzyme)”, the stoichiometry N [1] is reported as 4 and the stoichiometry N [2] is reported as 4.

“recombinant N2 (neuraminidase subtype 2 head domain of A/Kansas/14/2017 (H3N2) fused to the tetrabrachion tetramerization domain) (from UniProt Q54436 1238-1286) (enzyme)” gave a stoichiometry N [3] of 4 and a stoichiometry N [4] of 4.
